Patent US20150361450
Like-named read-outs stand apart in the source and are kept apart here.

Assays:
[1] = system: preKARS2 (precursor of human mitochondrial lysyl-tRNA synthetase) (Homo sapiens), Q15046-2; assay: EMSA; conditions: apparent Kd, error printed as 300+/250 (likely +/-50); 20 mM Tris-HCl pH 7.5, 150 mM NaCl, 10 mM MgCl2, 30 C
[2] = system: preMSK1p (precursor of yeast mitochondrial lysyl-tRNA synthetase) (Saccharomyces cerevisiae); conditions: CITED previously evaluated apparent Kd, printed as 280+/260; cited from earlier work
[3] = system: preKARS2 (precursor of human mitochondrial lysyl-tRNA synthetase) (Homo sapiens), Q15046-2; conditions: CITED targeting sequence said to completely abolish RNA binding; cited from earlier work
[4] = system: KARS2 (mature mitochondrial lysyl-tRNA synthetase, lacking predicted mitochondrial targeting presequence) (Homo sapiens); conditions: CITED apparent Kd, printed as 250+/240; cited from earlier work

Sequence of preKARS2 (precursor of human mitochondrial lysyl-tRNA synthetase) (Homo sapiens), Q15046-2 (Q15046 other isoform, or with tags, fused parts or gaps): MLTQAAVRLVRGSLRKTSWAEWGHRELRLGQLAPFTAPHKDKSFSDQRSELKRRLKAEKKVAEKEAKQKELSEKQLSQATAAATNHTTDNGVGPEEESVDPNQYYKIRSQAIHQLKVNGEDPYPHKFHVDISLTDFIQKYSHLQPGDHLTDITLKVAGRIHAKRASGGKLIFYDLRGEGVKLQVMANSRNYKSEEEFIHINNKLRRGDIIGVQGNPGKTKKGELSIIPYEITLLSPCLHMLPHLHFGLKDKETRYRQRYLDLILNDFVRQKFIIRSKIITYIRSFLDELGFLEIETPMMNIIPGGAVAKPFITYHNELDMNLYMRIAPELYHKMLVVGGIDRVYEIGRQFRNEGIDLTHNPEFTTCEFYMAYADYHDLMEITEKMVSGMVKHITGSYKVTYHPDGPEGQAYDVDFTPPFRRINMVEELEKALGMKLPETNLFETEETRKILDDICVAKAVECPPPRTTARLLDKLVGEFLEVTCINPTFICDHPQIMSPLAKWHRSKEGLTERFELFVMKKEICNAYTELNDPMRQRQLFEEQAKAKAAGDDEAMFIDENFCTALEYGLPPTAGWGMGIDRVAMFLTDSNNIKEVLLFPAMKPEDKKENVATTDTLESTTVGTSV

| Substance | Kd [1] [nM] | Kd [2] [nM] | Kd [3] [nM] | Kd [4] [nM] |
| --- | --- | --- | --- | --- |
| tRK1 (yeast tRNALys CUU, T7 transcript) | 300 | 280 | – | – |
| human cytosolic tRNALys3 | – | – | 100000 | 250 |
